The values below come from US20260028608A1.

Holding throughout (assay): cell-based or functional assay
Assay [1] concerns the target Humira (Abbvie), human IgG1.
Assay [2] addresses human IgG3 from Sigma (15654 Lot #SLBW0899) (human).
The target of assay [3] is Humira (Abbvie), human IgG1. The source holds these as a separate data set.
Assay [4] concerns the target human IgG4 from Abcam (ab90286 Lot #GR3180469) (human).
The target in assay [5] is XGEVA (Amgen), human IgG2.
The target in assay [6] is XGEVA (Amgen), human IgG2. The source holds these as a separate data set.

Where two headings read alike, the source gives them in different places.

With “IdeS (Immunoglobulin G-degrading enzyme of S. pyogenes), control polypeptide pCART124”, in assay [1], the Conc. of enzyme for cleavage of 1st IgG1 heavy chain, IgG to scIgG (SDS-PAGE) was 1.5 ng/mL and the Conc. of enzyme for cleavage of 2nd IgG1 heavy chain, scIgG to F(ab')2 (SDS-PAGE) turned out to be 120 ng/mL. In addition, in assay [2], the IgG3 EC50 F(ab')2 (SDS-PAGE, visual estimate) was 0.015 µg/mL and the IgG3 EC50 scIgG (SDS-PAGE, visual estimate) was 0.0022 µg/mL. Also, in assay [3], the Approximate EC50 value, i.e. equal amounts of scIgG and F(ab')2 (SDS-PAGE) was found to be 0.12 µg/mL; the Conc. of enzyme for cleavage of 1st IgG1 heavy chain, IgG to scIgG (SDS-PAGE) is 4.5 ng/mL; the Conc. of enzyme for cleavage of 2nd IgG1 heavy chain, scIgG to F(ab')2 (SDS-PAGE) turned out to be 400 ng/mL; the IgG1 EC50 F(ab')2 (SDS-PAGE, visual estimate) is 0.08 µg/mL. In assay [3], the IgG1 EC50 scIgG (SDS-PAGE, visual estimate) was 0.001 µg/mL and the fold of EC50 F(ab')2 for IgG1, IdeS against N240 amounted to 5 fold. In assay [4], the IgG4 EC50 F(ab')2 (SDS-PAGE, visual estimate) was 0.18 µg/mL and the IgG4 EC50 scIgG (SDS-PAGE, visual estimate) was 0.002 µg/mL. Moreover, in assay [5], the Conc. of enzyme for cleavage of 1st IgG2 heavy chain, IgG to scIgG (SDS-PAGE) is 40 ng/mL; the Conc. of enzyme for cleavage of 2nd IgG2 heavy chain, scIgG to F(ab)2 (SDS-PAGE) came out at 1100 ng/mL; the IgG2 EC50 F(ab')2 (SDS-PAGE, visual estimate) was 0.12 µg/mL; the IgG2 EC50 scIgG (SDS-PAGE, visual estimate) is 0.003 µg/mL. In assay [6], this substance came in with a Conc. of enzyme for cleavage of 1st IgG2 heavy chain, IgG to scIgG (SDS-PAGE) of 10 ng/mL and a Conc. of enzyme for cleavage of 2nd IgG2 heavy chain, scIgG to F(ab)2 (SDS-PAGE) of 400 ng/mL.
